{
  "source": "paper PMC11485048",
  "key": {"[1]": {"target": "SpyTag-noro-VLP (norovirus-like particle of the capsid protein VP1 with a C-terminally fused SpyTag) (norovirus (genotype not stated))", "assay": "covalent SpyCatcher/SpyTag conjugation read by SDS-PAGE densitometry; SpyCatcher-P domain conjugated on SpyTag-noro-VLP as in the first experiment; nonconjugated antigen removed by size-exclusion chromatography (HiPrep 16/60 Sephacryl S-500 HR); second immunization experiment"}, "[2]": {"target": "SpyTag-noro-VLP (norovirus-like particle of the capsid protein VP1 with a C-terminally fused SpyTag) (norovirus (genotype not stated))", "assay": "covalent SpyCatcher/SpyTag conjugation read by SDS-PAGE densitometry; SpyCatcher-antigen mixed with SpyTag-noro-VLP at 2:1 (P domain) or 4:1 (peptides) molar ratio, about 40 hours at +4 °C; unreacted SpyCatcher-antigen removed by dialysis through a 1000 kDa cut-off membrane; first immunization experiment"}},
  "data": [
    {"substance": "SpyCatcher-P domain fusion (furin P domain, residues 444-576) (from UniProt P09958 444-576)", "values": [
      {"measurement": "conjugation efficiency (%)", "setting": "[1]", "result": 5, "unit": "%"},
      {"measurement": "conjugation efficiency (%)", "setting": "[2]", "result": 20, "unit": "%"}
    ]}
  ]
}
